Columns and labels:
Human TNFR1/Fc [1] = target: T1, Human TNFR1/Fc (human, UniProt P19438 30-211); assay: SPR
T1 chain: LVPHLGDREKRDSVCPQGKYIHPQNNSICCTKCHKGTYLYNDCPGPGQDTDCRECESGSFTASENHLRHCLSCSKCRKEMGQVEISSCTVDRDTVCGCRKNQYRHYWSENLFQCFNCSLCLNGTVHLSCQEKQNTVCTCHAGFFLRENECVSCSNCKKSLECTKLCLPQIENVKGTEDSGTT

Human TNFR1/Fc [2] = target: T1, Human TNFR1/Fc; assay: SPR

B1: recombinant HP986 (natural protein)
chain: METFFSLHVPNRRIKQNGIIDEKSLEKIQERKNLSSLLYEHRARIIPLYKRINENHAKNKTINICENNLKLFYKDHQVCVNIDKKEIKLRYSEDEDDFRKYIIGGWFEEYIYCELLELLDKQVICDLRLNMILGVGNTNATQGDKHPIYTELDIAFSDGKNLYVAECKSGELKNKGVLAALSADAQIFGGANAKCILISIDGNLGQVLQEKVKILNIEFIFKYFKKNIENYINNSRR
In the case of B1, the Kd (Human TNFR1/Fc [1]) is reported as 72.1 nM and the Ka (Human TNFR1/Fc [2]) is reported as 1.39e+07 M⁻¹.

Reference: PMC3137634 (2011)
